Test results taken from article doi:10.1101/2025.02.12.637899, “UB-MBX-46 is a potent and selective antagonist of the human P2X7 receptor developed by structure-based drug design” (bioRxiv, 2025).

B1: full-length wild-type human P2X7 receptor (receptor, UniProt Q99572 1-595, looked up)
chain: MPACCSCSDVFQYETNKVTRIQSMNYGTIKWFFHVIIFSYVCFALVSDKLYQRKEPVISSVHTKVKGIAEVKEEIVENGVKKLVHSVFDTADYTFPLQGNSFFVMTNFLKTEGQEQRLCPEYPTRRTLCSSDRGCKKGWMDPQSKGIQTGRCVVYEGNQKTCEVSAWCPIEAVEEAPRPALLNSAENFTVLIKNNIDFPGHNYTTRNILPGLNITCTFHKTQNPQCPIFRLGDIFRETGDNFSDVAIQGGIMGIEIYWDCNLDRWFHHCRPKYSFRRLDDKTTNVSLYPGYNFRYAKYYKENNVEKRTLIKVFGIRFDILVFGTGGKFDIIQLVVYIGSTLSYFGLAAVFIDFLIDTYSSNCCRSHIYPWCKCCQPCVVNEYYYRKKCESIVEPKPTLKYVSFVDESHIRMVNQQLLGRSLQDVKGQEVPRPAMDFTDLSRLPLALHDTPPIPGQPEEIQLLRKEATPRSRDSPVWCQCGSCLPSQLPESHRCLEELCCRKKPGACITTSELFRKLVLSRHVLQFLLLYQEPLLALDVDSTNSRLRHCAYRCYATWRFGSQDMADFAILPSCCRWRIRKEFPKSEGQYSGFKSPY
modifications: palmitoylation of residues on the C-cys anchor; limited glycosylation, acylation and palmitoylation modelled where density allowed
notes: P2X7 receptor (P2X purinoceptor 7), human, full-length wild type, no mutations or truncations; UniProt Q99572; The construct carries a C-terminal GFP, a 3C protease site and a histidine tag; the protein was digested with HRV 3C protease before SEC; also called hP2X7R; hP2X7; not shown: GFP, C-terminal, cleaved
B2: full-length wild-type mouse P2X7 receptor (receptor, UniProt Q9Z1M0 1-595, looked up)
chain: MPACCSWNDVLQYETNKVTRIQSTNYGTVKWVLHMIVFSYISFALVSDKLYQRKEPVISSVHTKVKGIAEVTENVTEGGVTKLGHSIFDTADYTFPLQGNSFFVMTNYVKSEGQVQTLCPEYPRRGAQCSSDRRCKKGWMDPQSKGIQTGRCVPYDKTRKTCEVSAWCPTEEEKEAPRPALLRSAENFTVLIKNNIHFPGHNYTTRNILPTMNGSCTFHKTWDPQCSIFRLGDIFQEAGENFTEVAVQGGIMGIEIYWDCNLDSWSHHCRPRYSFRRLDDKNTDESFVPGYNFRYAKYYKENNVEKRTLIKAFGIRFDILVFGTGGKFDIIQLVVYIGSTLSYFGLATVCIDLLINTYSSAFCRSGVYPYCKCCEPCTVNEYYYRKKCESIMEPKPTLKYVSFVDEPHIRMVDQQLLGKSLQVVKGQEVPRPQMDFSDLSRLSLSLHDSPLTPGQSEEIQLLHEEVAPKSGDSPSWCQCGNCLPSRLPEQRRALEELCCRRKPGRCITTSKLFHKLVLSRDTLQLLLLYQDPLLVLGEEATNSRLRHRAYRCYATWRFGSQDMADFAILPSCCRWRIRKEFPKTEGQYSGFKYPY
modifications: palmitoylation of residues on the C-cys anchor; limited glycosylation, acylation and palmitoylation modelled where density allowed
notes: P2X7 receptor (P2X purinoceptor 7), mouse, full-length wild type, no mutations or truncations; UniProt Q9Z1M0; The construct carries a C-terminal GFP, a 3C protease site and a histidine tag; digested with HRV 3C protease before SEC; Homotrimer in the apo closed state structure; also called mP2X7R; mP2X7; source: HEK293 GNTI- cells, BacMam, purified (DDM/CHS, TALON, SEC); not shown: GFP, …

Molecular target: the molecule itself
Assay: cryo-EM structure; purified receptor in 20 mM HEPES pH 7.0, 100 mM NaCl, 0.5 mM C12M (DDM); apo, or incubated with 900 uM ATP or with antagonist at 3-4x the molar concentration of the monomer; homotrimer

Protein	stoichiometry N
B1	3
B2	3
